Values joined by “and” are separate entries in the source; they are usually repeats but may differ in a detail not shown here. Equal values may be shown once. Read-outs that look alike come from different tables or passages of the source.
What was measured:
[1] = molecular target: IQGAP1 (native, from bovine adrenal) (bovine (endogenous in adrenal)); assay: co-purification with quantitative immunoblot
[2] = molecular target: IQGAP1 (native, from bovine adrenal) (bovine (endogenous in adrenal)); assay: co-purification with quantitative immunoblot; remark: listed apart in the source
[3] = molecular target: F-actin assembled from purified rabbit skeletal muscle actin (rabbit) (UniProt P68135); assay: co-sedimentation
[4] = molecular target: IQGAP1 (native, from bovine adrenal) (bovine (endogenous in adrenal)); assay: AUC

Substance: Calmodulin co-purifying with native IQGAP1 from bovine adrenal (from UniProt P62157 1-149) (natural protein)
- stoichiometry N (mol calmodulin per mol 190K) [1]: 0.067 and 0.042 and 0.026
- stoichiometry N (mol calmodulin per mol 190K) [2]: 0.05

Substance: IQGAP1 (native, from bovine adrenal) (natural protein)
- percent of IQGAP1 able to bind F-actin (other experiments) [3]: 85%
- stoichiometry N (subunits per molecule) [4]: 2

From publication PMC2137827
